Data: the supplement of paper PMC10065799, “High-throughput profiling of sequence recognition by tyrosine kinases and SH2 domains using bacterial peptide display” (eLife, 2023)

Legend:
c-Src SH2 = assay: SH2 binding enrichment of the phosphorylated peptide, bacterial display (enrichment ratio); higher = better substrate or ligand; peptides without Tyr show the background
Grb2 SH2 = Grb2 SH2 (UniProt P62993); assay: as above
SHP2-C SH2 = assay: as above
Fer (mouse) = assay: phosphorylation enrichment, bacterial display (enrichment ratio); higher = better substrate or ligand; peptides without Tyr show the background
AncSZ = assay: as above
FGFR1 = FGFR1 (UniProt P11362); assay: as above
EPHB1 = EPHB1 (UniProt P54762); assay: as above
Hck = Hck (UniProt P08631); assay: as above
Jak2 = Jak2 (UniProt O60674); assay: as above
MERTK = MERTK (UniProt Q12866); assay: as above
FGFR3 = FGFR3 (UniProt P22607); assay: as above
Fyn = Fyn (UniProt P06241); assay: as above
EPHB2 = EPHB2 (UniProt P29323); assay: as above
Fes = Fes (UniProt P07332); assay: as above
c-Src = assay: as above
c-Abl (mouse) = assay: as above
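Wherever SH2 binding enrichment of the phosphorylated peptide, bacterial display is given: peptide library displayed on the E. coli surface as eCPX fusions, selected cells deep-sequenced, score is each peptide's frequency after selection divided by its frequency in the input.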
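Wherever phosphorylation enrichment, bacterial display is given: 11-residue human phosphosite peptides and single-mutation variants displayed on the E. coli surface, counted by deep sequencing, each peptide's frequency after selection divided by its frequency in the unselected input library; frequency after pTyr selection over input frequency; kinase dosed for 20-30% of maximal phosphorylation in three min.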

Hck, sequence (P08631 whole entry, looked up): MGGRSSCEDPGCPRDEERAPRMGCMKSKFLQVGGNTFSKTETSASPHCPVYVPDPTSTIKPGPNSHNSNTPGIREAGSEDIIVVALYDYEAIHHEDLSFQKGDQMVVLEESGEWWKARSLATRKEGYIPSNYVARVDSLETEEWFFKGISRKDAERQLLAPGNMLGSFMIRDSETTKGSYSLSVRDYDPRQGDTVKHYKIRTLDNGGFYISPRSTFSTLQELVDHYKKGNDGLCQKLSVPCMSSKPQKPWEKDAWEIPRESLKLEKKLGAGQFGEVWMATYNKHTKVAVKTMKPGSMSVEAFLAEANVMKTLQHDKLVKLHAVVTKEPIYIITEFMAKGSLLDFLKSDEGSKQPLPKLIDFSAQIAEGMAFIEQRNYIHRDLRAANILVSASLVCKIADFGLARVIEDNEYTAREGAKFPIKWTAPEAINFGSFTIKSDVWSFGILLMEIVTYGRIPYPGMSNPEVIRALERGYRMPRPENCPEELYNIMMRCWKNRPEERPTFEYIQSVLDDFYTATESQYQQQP
FGFR3, sequence (P22607 whole entry, looked up): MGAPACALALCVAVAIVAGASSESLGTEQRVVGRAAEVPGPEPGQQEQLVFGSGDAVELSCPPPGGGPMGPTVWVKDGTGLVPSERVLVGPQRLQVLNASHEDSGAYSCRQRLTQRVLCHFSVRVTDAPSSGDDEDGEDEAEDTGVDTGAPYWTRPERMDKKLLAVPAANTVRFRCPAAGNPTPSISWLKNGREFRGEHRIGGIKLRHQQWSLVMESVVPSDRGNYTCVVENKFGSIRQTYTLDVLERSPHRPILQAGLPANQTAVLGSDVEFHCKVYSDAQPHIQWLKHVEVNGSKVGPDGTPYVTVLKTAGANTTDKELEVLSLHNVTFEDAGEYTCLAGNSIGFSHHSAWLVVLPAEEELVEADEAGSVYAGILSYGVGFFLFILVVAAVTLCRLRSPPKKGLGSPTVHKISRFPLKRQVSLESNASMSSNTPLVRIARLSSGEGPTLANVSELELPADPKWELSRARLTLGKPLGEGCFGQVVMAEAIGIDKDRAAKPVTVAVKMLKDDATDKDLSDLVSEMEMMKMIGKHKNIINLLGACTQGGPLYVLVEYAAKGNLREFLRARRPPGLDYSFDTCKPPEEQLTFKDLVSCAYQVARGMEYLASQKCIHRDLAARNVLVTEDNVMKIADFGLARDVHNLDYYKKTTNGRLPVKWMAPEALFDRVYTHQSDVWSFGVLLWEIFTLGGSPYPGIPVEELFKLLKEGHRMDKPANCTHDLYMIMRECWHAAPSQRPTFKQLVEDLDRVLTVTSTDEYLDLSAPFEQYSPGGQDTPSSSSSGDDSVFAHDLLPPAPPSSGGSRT
Jak2, sequence (O60674 whole entry, looked up): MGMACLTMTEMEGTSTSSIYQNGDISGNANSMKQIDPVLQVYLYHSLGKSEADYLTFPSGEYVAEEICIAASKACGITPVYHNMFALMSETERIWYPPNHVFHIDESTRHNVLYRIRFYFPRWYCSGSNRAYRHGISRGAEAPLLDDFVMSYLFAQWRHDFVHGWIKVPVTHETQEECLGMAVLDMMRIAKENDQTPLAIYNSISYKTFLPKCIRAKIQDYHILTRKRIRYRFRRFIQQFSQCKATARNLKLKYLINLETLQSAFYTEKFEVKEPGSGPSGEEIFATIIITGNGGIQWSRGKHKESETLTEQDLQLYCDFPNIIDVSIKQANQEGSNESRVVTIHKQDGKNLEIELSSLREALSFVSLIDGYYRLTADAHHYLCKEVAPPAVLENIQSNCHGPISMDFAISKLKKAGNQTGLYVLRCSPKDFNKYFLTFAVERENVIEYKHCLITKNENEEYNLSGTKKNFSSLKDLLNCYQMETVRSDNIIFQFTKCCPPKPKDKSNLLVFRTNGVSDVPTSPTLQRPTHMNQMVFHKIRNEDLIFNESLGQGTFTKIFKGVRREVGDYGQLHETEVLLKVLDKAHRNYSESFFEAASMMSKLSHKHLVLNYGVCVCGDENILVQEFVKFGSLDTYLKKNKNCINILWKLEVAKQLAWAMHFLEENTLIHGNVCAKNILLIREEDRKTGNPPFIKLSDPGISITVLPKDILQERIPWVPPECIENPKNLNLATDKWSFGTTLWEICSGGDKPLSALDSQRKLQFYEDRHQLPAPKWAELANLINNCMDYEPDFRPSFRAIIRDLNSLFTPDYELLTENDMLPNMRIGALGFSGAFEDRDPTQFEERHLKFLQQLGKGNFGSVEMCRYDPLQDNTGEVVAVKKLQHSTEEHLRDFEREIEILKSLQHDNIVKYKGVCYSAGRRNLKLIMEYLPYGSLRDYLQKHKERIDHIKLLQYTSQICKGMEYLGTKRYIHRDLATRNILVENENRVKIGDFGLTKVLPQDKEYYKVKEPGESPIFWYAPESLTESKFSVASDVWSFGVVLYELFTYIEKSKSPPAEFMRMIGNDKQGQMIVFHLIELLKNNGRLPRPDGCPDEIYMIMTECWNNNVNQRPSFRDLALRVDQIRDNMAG
Fes, sequence (P07332 whole entry, looked up): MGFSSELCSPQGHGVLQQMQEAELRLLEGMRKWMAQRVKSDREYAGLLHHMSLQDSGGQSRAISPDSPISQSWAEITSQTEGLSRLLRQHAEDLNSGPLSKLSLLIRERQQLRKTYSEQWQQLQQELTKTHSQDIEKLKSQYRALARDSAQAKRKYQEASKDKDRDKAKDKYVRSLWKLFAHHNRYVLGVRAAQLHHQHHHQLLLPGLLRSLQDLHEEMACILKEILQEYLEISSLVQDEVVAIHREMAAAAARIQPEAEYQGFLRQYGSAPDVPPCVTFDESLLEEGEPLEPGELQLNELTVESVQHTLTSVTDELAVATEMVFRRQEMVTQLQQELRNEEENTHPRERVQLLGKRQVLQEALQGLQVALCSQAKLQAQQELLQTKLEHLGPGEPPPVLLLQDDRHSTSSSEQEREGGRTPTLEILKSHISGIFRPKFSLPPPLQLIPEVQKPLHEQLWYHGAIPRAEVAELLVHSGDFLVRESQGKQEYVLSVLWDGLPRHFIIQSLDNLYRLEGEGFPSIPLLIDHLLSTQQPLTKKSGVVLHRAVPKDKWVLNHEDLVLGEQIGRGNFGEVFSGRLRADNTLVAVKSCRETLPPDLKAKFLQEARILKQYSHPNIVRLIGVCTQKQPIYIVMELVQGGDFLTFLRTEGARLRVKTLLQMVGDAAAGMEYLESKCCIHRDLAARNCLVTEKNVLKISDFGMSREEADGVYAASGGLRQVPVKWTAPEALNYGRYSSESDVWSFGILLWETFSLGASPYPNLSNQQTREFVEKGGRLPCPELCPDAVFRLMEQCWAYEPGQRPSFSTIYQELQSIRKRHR
Fyn, sequence (P06241 whole entry, looked up): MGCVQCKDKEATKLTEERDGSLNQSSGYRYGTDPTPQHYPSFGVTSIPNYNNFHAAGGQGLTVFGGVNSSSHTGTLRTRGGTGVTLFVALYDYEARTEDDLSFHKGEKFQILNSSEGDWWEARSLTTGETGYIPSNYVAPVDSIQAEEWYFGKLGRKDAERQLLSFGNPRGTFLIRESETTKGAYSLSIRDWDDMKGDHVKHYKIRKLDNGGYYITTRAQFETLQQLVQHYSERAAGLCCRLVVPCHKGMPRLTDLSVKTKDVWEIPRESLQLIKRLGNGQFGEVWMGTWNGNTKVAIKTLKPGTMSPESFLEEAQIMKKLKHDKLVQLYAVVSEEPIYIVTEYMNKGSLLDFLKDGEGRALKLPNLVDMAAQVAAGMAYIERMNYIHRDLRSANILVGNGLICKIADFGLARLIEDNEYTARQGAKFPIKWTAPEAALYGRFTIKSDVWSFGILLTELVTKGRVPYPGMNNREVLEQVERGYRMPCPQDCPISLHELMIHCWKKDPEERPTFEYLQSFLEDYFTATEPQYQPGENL
EPHB2, sequence (P29323 whole entry, looked up): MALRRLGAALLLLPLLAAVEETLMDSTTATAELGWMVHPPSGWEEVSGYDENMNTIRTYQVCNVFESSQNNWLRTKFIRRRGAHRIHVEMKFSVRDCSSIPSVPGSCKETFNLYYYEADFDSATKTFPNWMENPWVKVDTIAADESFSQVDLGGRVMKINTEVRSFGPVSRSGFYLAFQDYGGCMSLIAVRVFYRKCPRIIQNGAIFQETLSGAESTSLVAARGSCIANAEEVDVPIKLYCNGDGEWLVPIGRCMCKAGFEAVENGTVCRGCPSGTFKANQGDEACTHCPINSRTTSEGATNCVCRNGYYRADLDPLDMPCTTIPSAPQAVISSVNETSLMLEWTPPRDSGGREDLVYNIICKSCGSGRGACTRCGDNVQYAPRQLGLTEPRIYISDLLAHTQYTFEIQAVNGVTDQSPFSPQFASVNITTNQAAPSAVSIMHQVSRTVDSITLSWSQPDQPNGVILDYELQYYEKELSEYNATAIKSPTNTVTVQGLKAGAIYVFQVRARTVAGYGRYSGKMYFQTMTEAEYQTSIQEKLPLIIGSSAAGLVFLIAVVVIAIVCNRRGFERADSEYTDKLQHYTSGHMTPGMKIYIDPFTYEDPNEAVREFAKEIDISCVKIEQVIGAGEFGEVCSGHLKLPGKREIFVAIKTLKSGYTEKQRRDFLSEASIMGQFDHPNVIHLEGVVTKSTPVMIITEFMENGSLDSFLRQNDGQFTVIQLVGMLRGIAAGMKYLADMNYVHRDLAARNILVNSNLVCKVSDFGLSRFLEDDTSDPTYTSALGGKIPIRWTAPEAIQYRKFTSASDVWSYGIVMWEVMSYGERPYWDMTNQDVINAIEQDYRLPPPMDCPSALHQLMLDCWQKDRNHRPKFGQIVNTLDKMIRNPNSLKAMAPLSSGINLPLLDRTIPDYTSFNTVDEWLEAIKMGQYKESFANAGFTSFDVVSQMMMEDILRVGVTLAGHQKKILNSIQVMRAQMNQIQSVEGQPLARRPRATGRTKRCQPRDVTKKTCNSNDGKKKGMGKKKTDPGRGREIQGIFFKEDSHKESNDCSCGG

Row | Sequence | SH2 binding enrichment (c-Src SH2) | SH2 binding enrichment (Grb2 SH2) | SH2 binding enrichment (SHP2-C SH2) | phosphorylation enrichment (Fer (mouse)) | phosphorylation enrichment (AncSZ) | phosphorylation enrichment (FGFR1) | phosphorylation enrichment (EPHB1) | phosphorylation enrichment (Hck) | phosphorylation enrichment (Jak2) | phosphorylation enrichment (MERTK) | phosphorylation enrichment (FGFR3) | phosphorylation enrichment (Fyn) | phosphorylation enrichment (EPHB2) | phosphorylation enrichment (Fes) | phosphorylation enrichment (c-Src) | phosphorylation enrichment (c-Abl (mouse))
1 | VVKLAYNENDN [CAMKK2_Y183] | 0.408 | 0.904 | 0.622 | 0.484 | 0.856 | 0.518 | 0.449 | 0.527 | 0.624 | 0.374 | 0.672 | 0.478 | 0.55 | 0.897 | 0.404 | 0.592
2 | VVKLTYNENDN [CAMKK2_Y183_A182T] | 0.469 | 0.815 | 0.673 | 0.577 | 0.939 | 0.618 | 0.491 | 0.5 | 0.726 | 0.467 | 0.564 | 0.468 | 0.545 | 0.917 | 0.419 | 0.551
3 | VVKTVYSLQPP [KNSTRN_Y87] | 0.441 | 0.803 | 1.03 | 0.387 | 0.862 | 0.458 | 0.571 | 1.17 | 0.681 | 2.61 | 0.525 | 2.59 | 0.45 | 0.817 | 2.46 | 0.777
4 | VVKTVYSLQPS [KNSTRN_Y87_P92S] | 0.482 | 0.651 | 0.981 | 0.485 | 0.648 | 0.52 | 0.671 | 0.688 | 0.715 | 1.42 | 0.561 | 1.73 | 0.455 | 0.848 | 2.05 | 0.716
5 | VVQGIYGYHHY [UFSP2_Y285] | 0.829 | 1.12 | 1.11 | 16.7 | 0.923 | 0.662 | 3.24 | 10.5 | 0.683 | 11.3 | 0.575 | 11.8 | 8.76 | 1.04 | 8.86 | 7.67
6 | WAMPAYNRSKL [WWOX_Y293_L291P] | 0.431 | 0.909 | 0.668 | 0.281 | 0.457 | 0.296 | 0.289 | 0.263 | 0.402 | 0.257 | 0.324 | 0.328 | 0.357 | 0.451 | 0.298 | 0.339
7 | WANPEYTGGFK | 0.656 | 0.801 | 0.618 | 0.413 | 1.29 | 0.43 | 0.549 | 0.575 | 0.734 | 0.364 | 0.646 | 0.422 | 0.383 | 1 | 0.685 | 0.917
8 | WDLTDYLMKIL [ACTB_Y188_R183W] | 1.32 | 1.66 | 1.92 | 0.529 | 1.25 | 0.539 | 0.556 | 0.611 | 1.23 | 0.477 | 0.777 | 0.519 | 0.548 | 1.32 | 0.487 | 0.894
9 | WFPANYVKLLN [ITSN1_Y1132_S1137N] | 0.646 | 0.919 | 2.22 | 0.511 | 1.06 | 0.599 | 3.81 | 0.536 | 1.45 | 0.587 | 0.76 | 0.53 | 1.21 | 1.14 | 0.532 | 0.759
10 | WIPNQYPIISE [NOG_Y222_I220N] | 0.605 | 0.788 | 0.827 | 0.541 | 0.86 | 0.63 | 0.427 | 0.465 | 0.862 | 0.342 | 0.671 | 0.361 | 0.526 | 0.98 | 0.636 | 0.747
11 | WRPFGYPHRRR [BCS1L_Y181_R183H] | 0.478 | 0.662 | 0.633 | 0.512 | 0.622 | 0.507 | 0.534 | 0.509 | 0.509 | 0.505 | 0.554 | 0.488 | 0.461 | 0.511 | 0.473 | 0.5
12 | WTAHSYRMGSA [ARHGEF7_Y785_T790A] | 0.545 | 0.96 | 0.794 | 0.38 | 0.683 | 0.556 | 0.477 | 0.443 | 0.679 | 0.377 | 0.438 | 0.503 | 0.457 | 0.736 | 0.48 | 0.495
13 | YADGVYQALEE [DUOX2_Y70] | 0.765 | 0.806 | 0.623 | 1.55 | 1.71 | 0.751 | 2.83 | 3.86 | 1.11 | 1.91 | 0.809 | 4.15 | 2.82 | 1.38 | 4.45 | 2.69
14 | YDYKKYGKGLR [ZNF445_Y433] | 0.749 | 0.939 | 1.02 | 0.373 | 0.41 | 0.371 | 0.318 | 0.366 | 0.444 | 0.358 | 0.536 | 0.323 | 0.276 | 0.517 | 0.346 | 0.48
15 | YECKWYIPLTD [BCR_Y756_D752E] | 0.477 | 0.704 | 0.665 | 0.657 | 1.48 | 0.812 | 0.843 | 0.585 | 1.48 | 0.922 | 1.1 | 0.469 | 0.774 | 1.56 | 0.576 | 1
16 | YHRQLYHKCTH [F12_Y58] | 1.44 | 1.34 | 1.22 | 0.467 | 0.886 | 0.453 | 0.41 | 0.53 | 0.653 | 0.571 | 0.606 | 0.378 | 0.537 | 0.795 | 0.481 | 0.641
17 | YKEQGYHRLPP [RIN1_Y681] | 0.904 | 1.11 | 0.917 | 0.365 | 0.478 | 0.622 | 0.363 | 0.35 | 0.977 | 0.346 | 0.544 | 0.462 | 0.364 | 0.507 | 0.431 | 0.455
18 | YKGKNYKPLDL [RPL35_Y78_K77N] | 0.516 | 0.9 | 0.846 | 0.267 | 0.423 | 0.32 | 0.277 | 0.276 | 0.59 | 0.333 | 0.362 | 0.334 | 0.246 | 0.697 | 0.391 | 0.575
19 | YKIYLYTLNDN [FN1_Y1975] | 0.483 | 0.794 | 0.851 | 0.671 | 1.34 | 0.541 | 0.801 | 0.563 | 1.4 | 0.383 | 1.02 | 0.479 | 0.711 | 1.52 | 0.431 | 1.09
20 | YLQEIYNSNNQ [FGG_Y140] | 0.51 | 0.679 | 0.77 | 0.512 | 0.918 | 0.436 | 0.617 | 1.54 | 0.998 | 0.441 | 0.606 | 1.59 | 0.561 | 1.23 | 1.84 | 0.692
21 | YLRTGYSVPYG [TGM1_Y370] | 9.92 | 0.848 | 1.64 | 0.489 | 0.834 | 0.495 | 0.4 | 0.493 | 0.893 | 0.666 | 0.532 | 0.42 | 0.534 | 0.685 | 0.408 | 0.777
22 | YRIGPYQPSVP [MATR3_Y784_N787S] | 0.668 | 0.829 | 0.996 | 0.429 | 0.55 | 0.749 | 0.421 | 0.481 | 0.524 | 0.425 | 0.759 | 0.514 | 0.434 | 0.708 | 0.449 | 0.62
23 | YRVDCYKNFVA [FHL1_Y213_C209R] | 0.556 | 1.51 | 0.984 | 0.493 | 0.984 | 0.565 | 0.559 | 0.487 | 0.837 | 0.507 | 0.753 | 0.504 | 0.595 | 1.22 | 0.415 | 0.543
24 | YSIAQYCCRMG [LRRK2_Y2023_G2019S] | 2.36 | 1.14 | 1.18 | 1.23 | 1.24 | 0.987 | 1.98 | 0.911 | 0.574 | 8.37 | 0.64 | 0.895 | 12 | 0.708 | 0.79 | 5.03
25 | YSPYDYQPCLA [TNS1_Y798] | 0.647 | 0.746 | 0.546 | 3.46 | 2.3 | 2.63 | 3.32 | 2.41 | 1.07 | 5.67 | 1.84 | 4.27 | 4.75 | 1.28 | 3.49 | 0.973
